Measured values from article PMC8182806, “Cryo-EM structures of the full-length human KCC2 and KCC3 cation-chloride cotransporters” (Cell Research, 2020).
One block for each molecule: values may come before it.

What was measured:
[1] = biological target: human KCC3 (SLC12A6), K+-Cl- cotransporter 3, full length (human) (UniProt Q9UHW9); test: cryo-EM structure; single particle cryo-EM of the purified full-length transporter, no inhibitor; KCC2 at 3.2 Å, KCC3 at 3.3 Å overall
[2] = biological target: the molecule itself; test: as above

- stoichiometry N [1]: 2
Molecule: human KCC3 (SLC12A6), K+-Cl- cotransporter 3, full length (from UniProt Q9UHW9-2 1-1099) (natural protein)

B1: human KCC2 (SLC12A5), K+-Cl- cotransporter 2, full length (natural protein, UniProt Q9H2X9 1-1139, looked up)
chain: MSRRFTVTSLPPAGPARSPDPESRRHSVADPRHLPGEDVKGDGNPKESSPFINSTDTEKGKEYDGKNMALFEEEMDTSPMVSSLLSGLANYTNLPQGSREHEEAENNEGGKKKPVQAPRMGTFMGVYLPCLQNIFGVILFLRLTWVVGIAGIMESFCMVFICCSCTMLTAISMSAIATNGVVPAGGSYYMISRSLGPEFGGAVGLCFYLGTTFAGAMYILGTIEILLAYLFPAMAIFKAEDASGEAAAMLNNMRVYGTCVLTCMATVVFVGVKYVNKFALVFLGCVILSILAIYAGVIKSAFDPPNFPICLLGNRTLSRHGFDVCAKLAWEGNETVTTRLWGLFCSSRFLNATCDEYFTRNNVTEIQGIPGAASGLIKENLWSSYLTKGVIVERSGMTSVGLADGTPIDMDHPYVFSDMTSYFTLLVGIYFPSVTGIMAGSNRSGDLRDAQKSIPTGTILAIATTSAVYISSVVLFGACIEGVVLRDKFGEAVNGNLVVGTLAWPSPWVIVIGSFFSTCGAGLQSLTGAPRLLQAISRDGIVPFLQVFGHGKANGEPTWALLLTACICEIGILIASLDEVAPILSMFFLMCYMFVNLACAVQTLLRTPNWRPRFRYYHWTLSFLGMSLCLALMFICSWYYALVAMLIAGLIYKYIEYRGAEKEWGDGIRGLSLSAARYALLRLEEGPPHTKNWRPQLLVLVRVDQDQNVVHPQLLSLTSQLKAGKGLTIVGSVLEGTFLENHPQAQRAEESIRRLMEAEKVKGFCQVVISSNLRDGVSHLIQSGGLGGLQHNTVLVGWPRNWRQKEDHQTWRNFIELVRETTAGHLALLVTKNVSMFPGNPERFSEGSIDVWWIVHDGGMLMLLPFLLRHHKVWRKCKMRIFTVAQMDDNSIQMKKDLTTFLYHLRITAEVEVVEMHESDISAYTYEKTLVMEQRSQILKQMHLTKNEREREIQSITDESRGSIRRKNPANTRLRLNVPEETAGDSEEKPEEEVQLIHDQSAPSCPSSSPSPGEEPEGEGETDPEKVHLTWTKDKSVAEKNKGPSPVSSEGIKDFFSMKPEWENLNQSNVRRMHTAVRLNEVIVKKSRDAKLVLLNMPGPPRNRNGDENYMEFLEVLTEHLDRVMLVRGGGREVITIYS
notes: K+-Cl- cotransporter KCC2 (SLC12A5), human, full length; Printed residues: Y407, N-terminal loop A65-N83; It says the KCC2 structure is very similar to that of KCC3; source: expressed and purified
- binding result [2]: binds
